Laboratory results reported in article PMC10570040.

Key:
[1] = target: T1, EnfR wild-type (TON_1525) (Thermococcus onnurineus NA1) (UniProt B6YTS4); assay: EMSA; settings: EMSA: 10 mM Tris pH 7.4, 200 mM KCl, 2 mM DTT, 0.2 mM EDTA, 37 C 20 min, ITC: 10 mM Tris-HCl pH 7.4, 200 mM KCl, 1 mM TCEP, 25 C, footprint: 20 mM …
T1 sequence: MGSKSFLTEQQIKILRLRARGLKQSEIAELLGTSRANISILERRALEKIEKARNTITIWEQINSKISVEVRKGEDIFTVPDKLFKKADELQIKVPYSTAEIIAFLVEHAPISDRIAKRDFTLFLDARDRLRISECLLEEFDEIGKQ

[2] = target: T1, EnfR wild-type (TON_1525) (Thermococcus onnurineus NA1); assay: DNase I footprinting; settings: EMSA: 10 mM Tris pH 7.4, 200 mM KCl, 2 mM DTT, 0.2 mM EDTA, 37 C 20 min, ITC: 10 mM Tris-HCl pH 7.4, 200 mM KCl, 1 mM TCEP, 25 C, footprint: 20 mM …

Row | Sequence | binding [1] | binding [2]
1 | AACAGGGTGTTACATACTTTTATTTTCAATTCTAAGCTTCAAAAAACTCTTTTAAAAGTGAACATCCAATTAGGTTTGGGAAATGGTAAACAAAATTGTAAAAGGGTGTTTTGAACCAAACGTGGGGTGATAGAAAGATGGCATTTAT (double strand) [P1582] | binds | 
2 | GAGAGTTTTACTGTCTCTAAATGAAAGGTTCTAATACGGTGGATCGAATAATTTCTTGCGTTTTTATCCGGATCGCCGAACACGATTCCATCTTAAAATCTTTTTGTTTACATTATACGAGGTGATCAACAATGCCAGCTTTTTCCGGTT (double strand) [150-bp codh promoter probe] |  | binds
